Where “and” joins values, the source holds several entries; their conditions need not be identical. Identical values can stand only once.
Legend:
[1] = target: HIV-1 16055 envelope (HIV-1); assay: capture ELISA, plate 1, mAb 0.3 ug/ml
[2] = target: HIV-1 JRCSF envelope (HIV-1) (UniProt P20871); assay: capture ELISA, plate 1, mAb 0.3 ug/ml
[3] = target: HIV-1 JRFL envelope (HIV-1); assay: capture ELISA, plate 1, mAb 0.3 ug/ml
[4] = target: HIV-1 envelope clone G-011.c02 (multiclade gp160 clone panel) (HIV-1); assay: capture ELISA, plate 1, mAb 0.3 ug/ml
[5] = target: HIV-1 envelope clone G-011.c05 (multiclade gp160 clone panel) (HIV-1); assay: capture ELISA, plate 1, mAb 0.3 ug/ml
[6] = target: HIV-1 envelope of gp160 clone AG-010.c11 (HIV-1); assay: capture ELISA, plate 1, mAb 0.3 ug/ml
[7] = target: HIV-1 envelope of gp160 clone AG-010.c14 (HIV-1); assay: capture ELISA, plate 1, mAb 0.3 ug/ml
[8] = target: HIV-1 envelope of gp160 clone B-Acute-008.c11 (HIV-1); assay: capture ELISA, plate 1, mAb 0.3 ug/ml
[9] = target: HIV-1 envelope of gp160 clone B-Acute-009-c08 (HIV-1); assay: capture ELISA, plate 1, mAb 0.3 ug/ml
[10] = target: HIV-1 envelope of gp160 clone B-Acute-010.c08 (HIV-1); assay: capture ELISA, plate 1, mAb 0.3 ug/ml
[11] = target: HIV-1 envelope of gp160 clone B-Acute-010.c09 (HIV-1); assay: capture ELISA, plate 1, mAb 0.3 ug/ml
[12] = target: HIV-1 envelope of gp160 clone B-Chronic-014.c02 (HIV-1); assay: capture ELISA, plate 1, mAb 0.3 ug/ml
[13] = target: HIV-1 envelope of gp160 clone B-Acute-010.c09 (HIV-1); assay: capture ELISA, plate 1, mAb 0.8 ug/ml
[14] = target: HIV-1 envelope of gp160 clone B-Chronic-014.c02 (HIV-1); assay: capture ELISA, plate 1, mAb 0.8 ug/ml
[15] = target: HIV-1 16055 envelope (HIV-1); assay: capture ELISA, plate 2, mAb 0.3 ug/ml
[16] = target: HIV-1 JRCSF envelope (HIV-1) (UniProt P20871); assay: capture ELISA, plate 2, mAb 0.3 ug/ml
[17] = target: HIV-1 JRFL envelope (HIV-1); assay: capture ELISA, plate 2, mAb 0.3 ug/ml
[18] = target: HIV-1 envelope clone G-011.c02 (multiclade gp160 clone panel) (HIV-1); assay: capture ELISA, plate 2, mAb 0.3 ug/ml
[19] = target: HIV-1 envelope clone G-011.c05 (multiclade gp160 clone panel) (HIV-1); assay: capture ELISA, plate 2, mAb 0.3 ug/ml
[20] = target: HIV-1 envelope of gp160 clone AG-010.c11 (HIV-1); assay: capture ELISA, plate 2, mAb 0.3 ug/ml
[21] = target: HIV-1 envelope of gp160 clone AG-010.c14 (HIV-1); assay: capture ELISA, plate 2, mAb 0.3 ug/ml
[22] = target: HIV-1 envelope of gp160 clone B-Acute-008.c11 (HIV-1); assay: capture ELISA, plate 2, mAb 0.3 ug/ml
[23] = target: HIV-1 envelope of gp160 clone B-Acute-009-c08 (HIV-1); assay: capture ELISA, plate 2, mAb 0.3 ug/ml
[24] = target: HIV-1 envelope of gp160 clone B-Acute-010.c08 (HIV-1); assay: capture ELISA, plate 2, mAb 0.3 ug/ml
[25] = target: HIV-1 envelope of gp160 clone B-Acute-010.c09 (HIV-1); assay: capture ELISA, plate 2, mAb 0.3 ug/ml
[26] = target: HIV-1 envelope of gp160 clone B-Chronic-014.c02 (HIV-1); assay: capture ELISA, plate 2, mAb 0.3 ug/ml
[27] = target: BG505 envelope (gp120 monomer released from lysed pseudovirus) (HIV-1); assay: antigen capture ELISA, mAb 0.3 ug/ml, plate 1
[28] = target: aMLV envelope (from lysed pseudovirus); assay: antigen capture ELISA, mAb 0.3 ug/ml, plate 1
[29] = target: HIV-1 envelope clone BF-002.c05 (multiclade gp160 clone panel) (HIV-1); assay: capture ELISA, plate 1, mAb 0.3 ug/ml
[30] = target: HIV-1 envelope clone BF-002.c08 (multiclade gp160 clone panel) (HIV-1); assay: capture ELISA, plate 1, mAb 0.3 ug/ml
[31] = target: HIV-1 envelope clone F1-002.c11 (multiclade gp160 clone panel) (HIV-1); assay: capture ELISA, plate 1, mAb 0.3 ug/ml
[32] = target: HIV-1 envelope clone F1-002.c16 (multiclade gp160 clone panel) (HIV-1); assay: capture ELISA, plate 1, mAb 0.3 ug/ml
[33] = target: HIV-1 envelope clone BF-002.c08 (multiclade gp160 clone panel) (HIV-1); assay: capture ELISA, plate 1, mAb 0.8 ug/ml
[34] = target: HIV-1 envelope clone BF-002.c05 (multiclade gp160 clone panel) (HIV-1); assay: capture ELISA, plate 2, mAb 0.3 ug/ml
[35] = target: HIV-1 envelope clone BF-002.c08 (multiclade gp160 clone panel) (HIV-1); assay: capture ELISA, plate 2, mAb 0.3 ug/ml
[36] = target: HIV-1 envelope clone F1-002.c11 (multiclade gp160 clone panel) (HIV-1); assay: capture ELISA, plate 2, mAb 0.3 ug/ml
[37] = target: HIV-1 envelope clone F1-002.c16 (multiclade gp160 clone panel) (HIV-1); assay: capture ELISA, plate 2, mAb 0.3 ug/ml

| Substance | ELISA OD [4] [OD] | ELISA OD [5] [OD] | ELISA OD [6] [OD] | ELISA OD [7] [OD] | ELISA OD [8] [OD] | ELISA OD [9] [OD] | ELISA OD [10] [OD] | ELISA OD [11] [OD] | ELISA OD [13] [OD] | ELISA OD [14] [OD] | ELISA OD [16] | ELISA OD [18] [OD] | ELISA OD [19] [OD] | ELISA OD [20] [OD] | ELISA OD [21] [OD] | ELISA OD [22] [OD] | ELISA OD [23] [OD] | ELISA OD [24] [OD] | ELISA OD [25] [OD] | ELISA OD [26] [OD] | further results |
| --- | --- | --- | --- | --- | --- | --- | --- | --- | --- | --- | --- | --- | --- | --- | --- | --- | --- | --- | --- | --- | --- |
| PG9 (antibody) | 0.064 | 0.104 | 0.278 | 0.339 | 0.114 | 0.062 | 0.089 | 0.073 | 0.08 | 1.22 | 0.113 OD and 0.131 OD | 0.052 | 0.076 | 0.257 | 0.274 | 0.097 | 0.057 | 0.079 | 0.074 | 0.479 | ELISA OD [1]: 0.184 OD and 0.188 OD; ELISA OD [2]: 0.158 OD and 0.171 OD; ELISA OD [3]: 0.066 OD and 0.072 OD; ELISA OD [12]: 0.564 OD; ELISA OD [15]: 0.118 OD and 0.146 OD; ELISA OD [17]: 0.06 OD and 0.056 OD; ELISA OD [27]: 0.162 OD; ELISA OD [28]: 0.068 OD and 0.067 OD |
| PG16 (antibody) | 0.063 | 0.085 | 0.141 | 0.265 | 0.163 | 0.053 | 0.083 | 0.062 | 0.073 | 0.365 | 0.133 OD and 0.167 OD | 0.09 | 0.095 | 0.167 | 0.337 | 0.141 | 0.077 | 0.11 | 0.071 | 0.222 | ELISA OD [2]: 0.122 OD and 0.186 OD; ELISA OD [29]: 0.352 OD; ELISA OD [30]: 0.109 OD; ELISA OD [31]: 0.088 OD; ELISA OD [32]: 0.229 OD; ELISA OD [12]: 0.288 OD; ELISA OD [33]: 0.134 OD; ELISA OD [34]: 0.361 OD; ELISA OD [35]: 0.097 OD; ELISA OD [36]: 0.098 OD; ELISA OD [37]: 0.224 OD; ELISA OD [27]: 0.067 OD; ELISA OD [28]: 0.053 OD and 0.096 OD |
| PGT145 (antibody) | 0.084 | 0.076 | 0.06 | 0.055 | 0.099 | 0.058 | 0.081 | 0.065 | 0.06 | 0.083 | 0.067 OD and 0.115 OD | 0.104 | 0.074 | 0.075 | 0.061 | 0.092 | 0.084 | 0.088 | 0.082 | 0.058 | ELISA OD [1]: 0.057 OD and 0.069 OD; ELISA OD [2]: 0.083 OD and 0.072 OD; ELISA OD [3]: 0.063 OD and 0.071 OD; ELISA OD [29]: 0.106 OD; ELISA OD [30]: 0.065 OD; ELISA OD [31]: 0.061 OD; ELISA OD [32]: 0.164 OD; ELISA OD [12]: 0.056 OD; ELISA OD [33]: 0.054 OD; ELISA OD [15]: 0.066 OD and 0.1 OD; ELISA OD [17]: 0.068 OD and 0.08 OD; ELISA OD [34]: 0.114 OD; ELISA OD [35]: 0.088 OD; ELISA OD [36]: 0.059 OD; ELISA OD [37]: 0.254 OD; ELISA OD [27]: 0.066 OD; ELISA OD [28]: 0.057 OD and 0.116 OD |
| PGT151 (antibody) | 0.053 | 0.064 | 0.055 | 0.118 | 0.138 | 0.085 | 0.104 | 0.052 | 0.055 | 0.148 | 0.069 OD and 0.065 OD | 0.116 | 0.057 | 0.075 | 0.121 | 0.234 | 0.063 | 0.149 | 0.072 | 0.216 | ELISA OD [1]: 0.053 OD and 0.058 OD; ELISA OD [3]: 0.074 OD and 0.055 OD; ELISA OD [29]: 0.08 OD; ELISA OD [30]: 0.055 OD; ELISA OD [31]: 0.054 OD; ELISA OD [32]: 0.062 OD; ELISA OD [12]: 0.195 OD; ELISA OD [33]: 0.05 OD; ELISA OD [15]: 0.054 OD and 0.096 OD; ELISA OD [17]: 0.073 OD and 0.088 OD; ELISA OD [34]: 0.1 OD; ELISA OD [35]: 0.09 OD; ELISA OD [36]: 0.058 OD; ELISA OD [37]: 0.107 OD; ELISA OD [27]: 0.057 OD; ELISA OD [28]: 0.068 OD and 0.057 OD |
| PGV04 (antibody) | 0.167 | 0.08 | 0.07 | 0.093 | 0.055 | 0.07 | 0.287 | 0.432 | 0.902 | 2.9 | 0.525 OD and 0.588 OD | 0.189 | 0.123 | 0.103 | 0.096 | 0.129 | 0.075 | 0.303 | 0.424 | 1.52 | ELISA OD [2]: 0.481 OD and 0.603 OD; ELISA OD [29]: 0.881 OD; ELISA OD [30]: 0.663 OD; ELISA OD [31]: 0.082 OD; ELISA OD [32]: 0.083 OD; ELISA OD [33]: 1.27 OD; ELISA OD [34]: 1 OD; ELISA OD [35]: 0.758 OD; ELISA OD [36]: 0.064 OD; ELISA OD [37]: 0.142 OD; ELISA OD [27]: 0.45 OD; ELISA OD [28]: 0.052 OD and 0.057 OD |
